Assay results taken from patent US20040126856A1, “Factor ixa: factor Vllla interaction and methods therefor” (priority 2004, published 2004).
Each block holds one molecule with its values, some of them ahead of it.

Assays:
[1] = target: T1, A2 subunit of factor VIIIa (Homo sapiens, UniProt P00451); assay: Apparent KdA2 of dEGR-IXa proteins: inhibition of IXaWT:A2 subunit interaction in the tenase system; format: biochemical; conditions: 100 nM IXaWT, 30 nM A2 subunit, 250 nM factor X, 25 μM PL; from IC50 by Eq. 3 (FIG. 3); read-out: Apparent KdA2
T1 construct: cleaved by thrombin at R372-S373, R740-S741, and R1689-S1690 to yield factor VIIIa
T1 sequence (P00451 392-759): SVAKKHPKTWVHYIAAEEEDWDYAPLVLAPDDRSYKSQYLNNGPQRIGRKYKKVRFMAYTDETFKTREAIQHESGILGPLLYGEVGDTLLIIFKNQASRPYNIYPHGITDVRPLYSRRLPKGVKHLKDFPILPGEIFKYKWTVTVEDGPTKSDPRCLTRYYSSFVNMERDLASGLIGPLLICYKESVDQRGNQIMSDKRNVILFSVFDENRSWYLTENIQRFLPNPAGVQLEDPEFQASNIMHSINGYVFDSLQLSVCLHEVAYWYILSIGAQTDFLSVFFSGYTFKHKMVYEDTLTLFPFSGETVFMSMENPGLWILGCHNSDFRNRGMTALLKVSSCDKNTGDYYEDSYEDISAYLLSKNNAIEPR
Experimental: Determination of KdA2 of Binding of dEGR-IXa Proteins to A2 Subunit.
The apparent Kd (termed KdA2) for binding of each dEGR-IXa protein to the A2 subunit was determined by its ability to inhibit factor IXaWT:A2 subunit interaction in the tenase complex as described earlier for intact factor VIIIa (Mather and Bajaj, 1999; Mather et al., 1997). The reactions were carried out as described for the EC50 experiments above except dEGR-IXa and IXaWT were mixed prior to addition of the A2 subunit; this ensured steady state conditions. Mixtures contained 100 nM IXaWT, 30 nM A2 subunit, 250 nM factor X, 25 μM PL, and various concentrations of dEGR-IXa proteins in TBS/BSA, pH 7.5 containing 5 mM CaCl2. The IC50 (concentration of inhibitor required for 50% inhibition) was determined by fitting the data to the IC50 four-parameter logistic equation of Halfman (1981) given below (Eq. 2). [formula]
where y is the rate of Xa formation in the presence of a given concentration of dEGR-IXa protein represented by x, a is the maximum rate of factor Xa formation in the absence of dEGR-IXa, and s is the slope factor. Each point was weighted equally, and the data were fitted to Equation 2 using the nonlinear regression analysis program GraFit from Erithacus Software. […] To obtain KdA2 values for the interaction of dEGR-IXa proteins with A2, we used the following equation (Eq. 3) as described by Cheng and Prusoff (1973) and further elaborated by Craig (1993). [formula]
where A is the concentration of IXaWT, and EC50 is the concentration of factor IXaWT that gives a 50% maximum response in the absence of the competitor at a specified concentration of factor X used in the experiment.

[2] = test system: T2, A2 subunit of factor VIIIa
T2 sequence: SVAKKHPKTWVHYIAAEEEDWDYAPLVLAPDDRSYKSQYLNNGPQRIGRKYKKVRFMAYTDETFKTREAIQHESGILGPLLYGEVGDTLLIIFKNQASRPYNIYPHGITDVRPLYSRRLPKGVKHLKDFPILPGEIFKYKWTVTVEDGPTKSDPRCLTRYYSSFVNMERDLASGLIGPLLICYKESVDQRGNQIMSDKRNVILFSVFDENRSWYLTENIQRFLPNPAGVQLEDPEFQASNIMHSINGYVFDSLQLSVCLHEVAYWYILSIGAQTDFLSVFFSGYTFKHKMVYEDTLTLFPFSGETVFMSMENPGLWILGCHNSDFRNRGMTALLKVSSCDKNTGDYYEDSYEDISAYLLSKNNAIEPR

[3] = target: A2 subunit of factor VIIIa (human) (UniProt P00451); assay: factor Xa generation at rising A2 subunit, 5 nM IXa; factor X <150 nM; functional Kd
[4] = target: A2 subunit of factor VIIIa (human) (UniProt P00451); assay: potentiation of factor X activation by A2 subunit (FIGS. 1 and 2); functional Kd
[5] = target: A2 subunit of factor VIIIa (human) (UniProt P00451); assay: factor Xa generation at rising A2 subunit, 5 nM IXa; factor X >1 µM; functional Kd
[6] = target: T3, dEGR-IXaVIIhelix (factor IXaVIIhelix inactivated with dansyl-Glu-Gly-Arg-chloromethyl ketone) (human, UniProt P08709 364-372, active site inactivated with dansyl-Glu-Gly-Arg-chloromethyl ketone (dEGR-ck); gamma-carboxyglutamic acid residues in the Gla domain (normal Gla content)); assay: dEGR-IXa competition with 100 nM IXaWT for 30 nM A2 in tenase assay (FIG. 3); apparent KdA2
T3 construct: domain: helix c162-170; also called dEGR-IXVIIhelix
T3 sequence (light, as listed by the source limits assumed, form in doubt, chain 1 of 2): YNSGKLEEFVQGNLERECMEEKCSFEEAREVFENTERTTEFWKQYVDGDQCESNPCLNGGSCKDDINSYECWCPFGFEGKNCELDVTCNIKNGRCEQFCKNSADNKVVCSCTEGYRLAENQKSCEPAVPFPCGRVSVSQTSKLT
T3 sequence (heavy, as listed by the source limits assumed, form in doubt, chain 2 of 2): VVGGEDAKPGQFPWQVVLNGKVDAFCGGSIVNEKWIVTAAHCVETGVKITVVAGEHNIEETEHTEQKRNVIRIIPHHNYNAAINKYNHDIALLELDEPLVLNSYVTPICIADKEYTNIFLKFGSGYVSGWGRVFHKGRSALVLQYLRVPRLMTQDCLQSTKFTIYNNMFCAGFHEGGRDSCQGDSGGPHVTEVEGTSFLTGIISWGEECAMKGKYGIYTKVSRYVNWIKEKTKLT

[7] = target: T4, dEGR-IXaPCEGF1 (factor IXaPCEGF1 inactivated with dansyl-Glu-Gly-Arg-chloromethyl ketone) (human, UniProt P04070 88-134, limits assumed, active site inactivated with dansyl-Glu-Gly-Arg-chloromethyl ketone (dEGR-ck); gamma-carboxyglutamic acid residues in the Gla domain (normal Gla content)); assay: dansyl fluorescence quenching, 220 nM dEGR-IXa titrated with A2 subunit, bimolecular association fit (FIG. 4)
T4 construct: domain: EGF1
T4 sequence (P04070 other isoform, or with tags, fused parts or gaps limits assumed, form in doubt, chain 1 of 2): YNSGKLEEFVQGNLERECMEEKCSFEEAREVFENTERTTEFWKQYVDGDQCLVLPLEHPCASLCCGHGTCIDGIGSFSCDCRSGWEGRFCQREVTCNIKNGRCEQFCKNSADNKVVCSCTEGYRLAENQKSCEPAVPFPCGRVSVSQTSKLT
T4 sequence (heavy, as listed by the source limits assumed, form in doubt, chain 2 of 2): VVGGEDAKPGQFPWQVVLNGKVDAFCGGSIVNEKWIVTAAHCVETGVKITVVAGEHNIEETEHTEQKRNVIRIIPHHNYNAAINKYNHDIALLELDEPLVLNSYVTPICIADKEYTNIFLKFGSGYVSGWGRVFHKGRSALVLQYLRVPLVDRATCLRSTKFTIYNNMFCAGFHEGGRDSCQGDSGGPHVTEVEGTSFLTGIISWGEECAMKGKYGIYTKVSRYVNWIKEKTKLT
Experimental: (§1) The effect of the A2 subunit on the emission intensity of the dansyl moiety in each dEGR-IXa protein was determined using the SLM AB2 spectrofluorometer. Each reaction mixture contained 220 nM dEGR-IXa in 20 mM Hepes, pH 7.2, 100 mM NaCl, 5 mM CaCl₂, 0.01% Tween, 200 μg/ml BSA and 100 μM PL vesicles. The excitation wavelength was 340 nm (slit width, 8 nm) and the emission wavelength was 540 nm (slit width; 8 nm). First, blank values (in triplicate) were obtained for the buffer containing PL. dEGR-IXa was then added and the emission intensity in the absence of the A2 subunit was recorded. Each reaction mixture was subsequently titrated with the A2 subunit and the emission readings (in triplicate) were obtained at each time point. The fluorescence emission intensity at each point was corrected for increases in the reaction volume prior to analysis of the data. […] Data are presented as F/F₀ where F₀ is the emission intensity in the absence of A2 subunit and F is the intensity at a given A2 subunit concentration.

[8] = target: T5, dEGR-IXaWT (factor IXaWT inactivated with dansyl-Glu-Gly-Arg-chloromethyl ketone) (human, UniProt P00740 47-190; P00740 227-461, active site inactivated with dansyl-Glu-Gly-Arg-chloromethyl ketone (dEGR-ck); gamma-carboxyglutamic acid residues in the Gla domain (normal Gla content)); assay: as above
T5 construct: also called dEGR-IXWT
T5 sequence (P00740 47-190, form in doubt, chain 1 of 2): as the sequence (light, as listed by the source limits assumed, form in doubt, chain 1 of 2) above
Experimental: as §1

[9] = target: dEGR-IXaR333Q (factor IXaR333Q inactivated with dansyl-Glu-Gly-Arg-chloromethyl ketone) (human, UniProt P00740 47-190; P00740 227-461, active site inactivated with dansyl-Glu-Gly-Arg-chloromethyl ketone (dEGR-ck); gamma-carboxyglutamic acid residues in the Gla domain (normal Gla content)); assay: dEGR-IXa competition with 100 nM IXaWT for 30 nM A2 in tenase assay (FIG. 3); IC50 converted by Cheng-Prusoff; apparent KdA2
Sequence of dEGR-IXaR333Q (factor IXaR333Q inactivated with dansyl-Glu-Gly-Arg-chloromethyl ketone) (P00740 47-190, form in doubt, chain 1 of 2): as the sequence (light, as listed by the source limits assumed, form in doubt, chain 1 of 2) above
Sequence of dEGR-IXaR333Q (factor IXaR333Q inactivated with dansyl-Glu-Gly-Arg-chloromethyl ketone) (P00740 227-461 R379Q, form in doubt, chain 2 of 2): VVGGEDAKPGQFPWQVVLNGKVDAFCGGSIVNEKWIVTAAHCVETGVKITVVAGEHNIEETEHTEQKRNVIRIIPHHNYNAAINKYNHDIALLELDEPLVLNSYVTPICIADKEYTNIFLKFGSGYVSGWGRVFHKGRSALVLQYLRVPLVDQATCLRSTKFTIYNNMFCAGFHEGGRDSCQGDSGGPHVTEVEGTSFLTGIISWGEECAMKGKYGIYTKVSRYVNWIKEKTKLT

[10] = target: T4, dEGR-IXaPCEGF1 (factor IXaPCEGF1 …); assay: as above
[11] = target: T5, dEGR-IXaWT (factor IXaWT inactivated …); assay: as above

Kd [1]: ~100 nM
Molecule: dEGR-IXaPCEGF1: IXaPCEGF1 inactivated with dEGR-ck

Kd [1]: ~1800 nM
Molecule: dEGR-IXaR333Q: IXaR333Q inactivated with dEGR-ck

Kd [1]: ~100 nM
Molecule: dEGR-IXaWT: IXaWT inactivated with dansyl-Glu-Gly-Arg-chloromethyl ketone (dEGR-ck)

Molecule: factor IXaPCEGF1 (factor IXa replacement mutant in which the EGF1 domain is replaced by that of protein C)
enhancement of factor X activation (factor Xa generation, S-2222 hydrolysis) [2]: The presence of the A2 subunit in the reaction mixtures enhanced the factor X-activating activity of IXaPCEGF1 to the same extent as that of IXaWT

EC50 [3]: 300 nM
EC50 [4]: 250 nM
EC50 [5]: 200 nM
Molecule: factor IXaPCEGF1 (factor IXa replacement mutant in which the EGF1 domain is replaced by that of protein C) (from UniProt P04070 88-134) (enzyme)

Molecule: factor IXaVIIhelix (factor IXa replacement mutant in which helix 330-338 (c162-170) is replaced by that of factor VII)
enhancement of factor X activation (factor Xa generation, S-2222 hydrolysis) [2]: it was absent for the IXaVIIhelix

Molecule: factor IXaWT (wild-type recombinant factor IX activated by factor XIa)
enhancement of factor X activation (factor Xa generation, S-2222 hydrolysis) [2]: The presence of the A2 subunit in the reaction mixtures enhanced the factor X-activating activity of IXaPCEGF1 to the same extent as that of IXaWT

Kd [6]: > 1000 nM
Kd [7]: ~100 nM
Kd [8]: ~100 nM
Kd [9]: 1850 nM
Kd [10]: 114 nM
Kd [11]: 100 nM
B1: A2 subunit of factor VIIIa (other)
chain: SVAKKHPKTWVHYIAAEEEDWDYAPLVLAPDDRSYKSQYLNNGPQRIGRKYKKVRFMAYTDETFKTREAIQHESGILGPLLYGEVGDTLLIIFKNQASRPYNIYPHGITDVRPLYSRRLPKGVKHLKDFPILPGEIFKYKWTVTVEDGPTKSDPRCLTRYYSSFVNMERDLASGLIGPLLICYKESVDQRGNQIMSDKRNVILFSVFDENRSWYLTENIQRFLPNPAGVQLEDPEFQASNIMHSINGYVFDSLQLSVCLHEVAYWYILSIGAQTDFLSVFFSGYTFKHKMVYEDTLTLFPFSGETVFMSMENPGLWILGCHNSDFRNRGMTALLKVSSCDKNTGDYYEDSYEDISAYLLSKNNAIEPR
notes: also called isolated A2 subunit
